Values quoted from earlier work, collected in article PMC11442857.

Target: Bovine serum albumin, fatty-acid-free (FAF-BSA) (UniProt P02769)
Experiment: Analytical ultracentrifugation, sedimentation equilibrium
Settings: pH 7.2, 10 °C, PBS (concentration not stated)

UniProt P02769, sequence (P02769 whole entry): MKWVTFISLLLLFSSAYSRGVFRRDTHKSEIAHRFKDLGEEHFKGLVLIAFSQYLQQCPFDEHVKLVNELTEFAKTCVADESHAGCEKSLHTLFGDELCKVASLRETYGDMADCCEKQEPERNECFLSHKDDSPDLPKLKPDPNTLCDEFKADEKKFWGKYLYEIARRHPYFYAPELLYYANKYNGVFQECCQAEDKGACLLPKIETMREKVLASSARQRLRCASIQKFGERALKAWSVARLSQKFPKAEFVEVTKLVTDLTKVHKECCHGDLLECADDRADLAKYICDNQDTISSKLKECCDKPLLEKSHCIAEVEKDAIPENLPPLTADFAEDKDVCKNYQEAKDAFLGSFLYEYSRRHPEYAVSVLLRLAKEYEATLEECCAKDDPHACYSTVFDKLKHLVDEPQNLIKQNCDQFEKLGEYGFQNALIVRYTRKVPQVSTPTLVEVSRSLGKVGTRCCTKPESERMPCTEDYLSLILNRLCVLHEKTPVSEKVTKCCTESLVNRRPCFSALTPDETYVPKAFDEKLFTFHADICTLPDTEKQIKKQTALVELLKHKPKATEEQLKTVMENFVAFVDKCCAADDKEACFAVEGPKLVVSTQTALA

- Kd dimer: 4.5 mM
Substance: Bovine serum albumin, fatty-acid-free (FAF-BSA)
